Experiments:
HeLa Kyoto [1] = assay: solubility change mitosis vs G1/S (difference of NP-40 vs SDS log2 ratios) (log2 ratio difference); higher = more soluble in mitosis
HeLa Kyoto [2] = assay: melting temperature (median over replicates), in situ; higher = more thermally stable
HeLa Kyoto [3] = assay: solubility in G1/S (NP-40 vs SDS abundance) (log2 ratio); higher = more soluble; conditions: cell cycle stage: G1/S
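Wherever melting temperature (median over replicates), in situ is given: HeLa Kyoto cells synchronized by double thymidine or nocodazole block, proteins quantified by TMT10plex mass spectrometry, three independent biological replicates.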
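Wherever solubility change mitosis vs G1/S (difference of NP-40 vs SDS log2 ratios) is given: synchronized HeLa Kyoto cells (double thymidine block for G1/S, nocodazole release for mitosis), protein amounts in NP-40 versus SDS lysates quantified by mass spectrometry, three biological replicates.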
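Wherever solubility in G1/S (NP-40 vs SDS abundance) is given: HeLa Kyoto cells arrested at G1/S by double thymidine block, proteins quantified by TMT10plex mass spectrometry in mild NP-40 versus SDS extracts, three biological replicates.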

Chain of MARK1 (chain, as listed by the source): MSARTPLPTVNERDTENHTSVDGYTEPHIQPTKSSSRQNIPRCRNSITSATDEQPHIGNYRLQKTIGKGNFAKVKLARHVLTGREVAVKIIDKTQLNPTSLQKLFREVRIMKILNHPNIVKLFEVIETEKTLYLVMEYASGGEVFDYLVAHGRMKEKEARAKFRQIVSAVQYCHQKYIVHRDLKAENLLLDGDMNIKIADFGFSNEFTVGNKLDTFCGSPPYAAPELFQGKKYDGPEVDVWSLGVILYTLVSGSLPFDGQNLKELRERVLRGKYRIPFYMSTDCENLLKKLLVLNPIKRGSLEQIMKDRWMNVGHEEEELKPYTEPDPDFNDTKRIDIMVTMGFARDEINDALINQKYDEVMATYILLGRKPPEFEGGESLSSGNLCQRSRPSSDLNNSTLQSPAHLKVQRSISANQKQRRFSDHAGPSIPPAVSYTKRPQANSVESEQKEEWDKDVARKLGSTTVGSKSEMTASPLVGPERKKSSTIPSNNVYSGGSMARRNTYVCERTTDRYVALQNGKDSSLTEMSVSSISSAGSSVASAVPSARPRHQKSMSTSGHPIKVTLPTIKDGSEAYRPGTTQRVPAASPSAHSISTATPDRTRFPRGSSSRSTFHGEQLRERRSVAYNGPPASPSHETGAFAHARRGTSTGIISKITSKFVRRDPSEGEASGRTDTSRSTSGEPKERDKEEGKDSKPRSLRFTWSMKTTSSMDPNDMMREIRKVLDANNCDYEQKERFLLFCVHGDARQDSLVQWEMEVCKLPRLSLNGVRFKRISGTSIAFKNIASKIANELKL

Row | Substance | solubility change mitosis (log2) (HeLa Kyoto [1]) | melting temperature (HeLa Kyoto [2]; cell cycle stage: G1/S) | solubility in G1/S (log2) (HeLa Kyoto [3]) | melting temperature (HeLa Kyoto [2]; cell cycle stage: mitosis)
1 | MAQVLHVPAPFPGTPGPASPPAFPAKDPDPPYSVETPYGYRLDLDFLKYVDDIEKGHTLRRVAVQRRPRLSSLPRGPGSWWTSTESLCSNASGDSRHSAYSYCGRGFYPQYGALETRGGFNPRVERTLLDARRRLEDQAATPTGLGSLTPSAAGSTASLVGVGLPPPTPRSSGLSTPVPPSAGHLAHVREQMAGALRKLRQLEEQVKLIPVLQVKLSVLQEEKRQLTVQLKSQKFLGHPTAGRGRSELCLDLPDPPEDPVALETRSVGTWVRERDLGMPDGEAALAAKVAVLETQLKKALQELQAAQARQADPQPQAWPPPDSPVRVDTVRVVEGPREVEVVASTAAGAPAQRAQSLEPYGTGLRALAMPGRPESPPVFRSQEVVETMCPVPAAATSNVHMVKKISITERSCDGAAGLPEVPAESSSSPPGSEVASLTQPEKSTGRVPTQEPTHREPTRQAASQESEEAGGTGGPPAGVRSIMKRKEEVADPTAHRRSLQFVGVNGGYESSSEDSSTAENISDNDSTENEAPEPRERVPSVAEAPQLRPAGTAAAKTSRQECQLSRESQHIPTAEGASGSNTEEEIRMELSPDLISACLALEKYLDNPNALTERELKVAYTTVLQEWLRLACRSDAHPELVRRHLVTFRAMSARLLDYVVNIADSNGNTALHYSVSHANFPVVQQLLDSGVCKVDKQNRAGYSPIMLTALATLKTQDDIETVLQLFRLGNINAKASQAGQTALMLAVSHGRVDVVKALLACEADVNVQDDDGSTALMCACEHGHKEIAGLLLAVPSCDISLTDRDGSTALMVALDAGQSEIASMLYSRMNIKCSFAPMSDDESPTSSSAEE [KANK2] | -0.0916 | 46.7 °C | -0.0486 | 
2 | MARGQQKIQSQQKNAKKQAGQKKKQGHDQKAAAKAALIYTCTVCRTQMPDPKTFKQHFESKHPKTPLPPELADVQA [ZNF706] | 0.171 | 57.5 °C | -0.28 | 54.1 °C
3 | MARK1 | -0.0417 |  | -0.155 | 49 °C
4 | MASKGPSASASPENSSAGGPSGSSNGAGESGGQDSTFECNICLDTAKDAVISLCGHLFCWPCLHQWLETRPNRQVCPVCKAGISRDKVIPLYGRGSTGQQDPREKTPPRPQGQRPEPENRGGFQGFGFGDGGFQMSFGIGAFPFGIFATAFNINDGRPPPAVPGTPQYVDEQFLSRLFLFVALVIMFWLLIA [RNF185] | -0.146 | 53.4 °C | 0.352 | 
5 | MASKLLRAVILGPPGSGKGTVCQRIAQNFGLQHLSSGHFLRENIKASTEVGEMAKQYIEKSLLVPDHVITRLMMSELENRRGQHWLLDGFPRTLGQAEALDKICEVDLVISLNIPFETLKDRLSRRWIHPPSGRVYNLDFNPPHVHGIDDVTGEPLVQQEDDKPEAVAARLRQYKDVAKPVIELYKSRGVLHQFSGTETNKIWPYVYTLFSNKITPIQSKEAY [AK4] | 0.0928 |  | 0.384 | 51.3 °C
6 | MASQNRDPAATSVAAARKGAEPSGGAARGPVGKRLQQELMTLMMSGDKGISAFPESDNLFKWVGTIHGAAGTVYEDLRYKLSLEFPSGYPYNAPTVKFLTPCYHPNVDTQGNICLDILKEKWSALYDVRTILLSIQSLLGEPNIDSPLNTHAAELWKNPTAFKKYLQETYSKQVTSQEP [UBE2C] | 0.955 |  | -0.443 | 49.9 °C
7 | MASRRKSTTPCMVLASEQDPDLELISDLDEGPPVLTPVENTRAESISSDEEVHESVDSDNQQNKKVEGGYECKYCTFQTPDLNMFTFHVDSEHPNVVLNSSYVCVECNFLTKRYDALSEHNLKYHPGEENFKLTMVKRNNQTIFEQTINDLTFDGSFVKEENAEQAESTEVSSSGISISKTPIMKMMKNKVENKRIAVHHNSVEDVPEEKENEIKPDREEIVENPSSSASESNTSTSIVNRIHPSTASTVVTPAAVLPGLAQVITAVSAQQNSNLIPKVLIPVNSIPTYNAALDNNPLLLNTYNKFPYPTMSEITVLSAQAKYTEEQIKIWFSAQRLKHGVSWTPEEVEEARRKQFNGTVHTVPQTITVIPTHISTGSNGLPSILQTCQIVGQPGLVLTQVAGTNTLPVTAPIALTVAGVPSQNNIQKSQVPAAQPTAETKPATAAVPTSQSVKHETALVNPDSFGIRAKKTKEQLAELKVSYLKNQFPHDSEIIRLMKITGLTKGEIKKWFSDTRYNQRNSKSNQCLHLNNDSSTTIIIDSSDETTESPTVGTAQPKQSWNPFPDFTPQKFKEKTAEQLRVLQASFLNSSVLTDEELNRLRAQTKLTRREIDAWFTEKKKSKALKEEKMEIDESNAGSSKEEAGETSPADESGAPKSGSTGKICKKTPEQLHMLKSAFVRTQWPSPEEYDKLAKESGLARTDIVSWFGDTRYAWKNGNLKWYYYYQSANSSSMNGLSSLRKRGRGRPKGRGRGRPRGRPRGSKRINNWDRGPSLIKFKTGTAILKDYYLKHKFLNEQDLDELVNKSHMGYEQVREWFAERQRRSELGIELFEENEEEDEVIDDQEEDEEETDDSDTWEPPRHVKRKLSKSDD [ZHX1] | -0.162 | 48.3 °C | 0.0738 | 48.9 °C
8 | MASYYEILDVPRSASADDIKKAYRRKALQWHPDKNPDNKEFAEKKFKEVAEAYEVLSDKHKREIYDRYGREGLTGTGTGPSRAEAGSGGPGFTFTFRSPEEVFREFFGSGDPFAELFDDLGPFSELQNRGSRHSGPFFTFSSSFPGHSDFSSSSFSFSPGAGAFRSVSTSTTFVQGRRITTRRIMENGQERVEVEEDGQLKSVTINGVPDDLALGLELSRREQQPSVTSRSGGTQVQQTPASCPLDSDLSEDEDLQLAMAYSLSEMEAAGKKPAGGREAQHRRQGRPKAQHQDPGLGGTQEGARGEATKRSPSPEEKASRCLIL [DNAJB2] | 0.274 | 50.2 °C | 0.0895 | 50.5 °C
9 | MATQAHSLSYAGCNFLRQRLVLSTLSGRPVKIRKIRARDDNPGLRDFEASFIRLLDKITNGSRIEINQTGTTLYYQPGLLYGGSVEHDCSVLRGIGYYLESLLCLAPFMKHPLKIVLRGVTNDQVDPSVDVLKATALPLLKQFGIDGESFELKIVRRGMPPGGGGEVVFSCPVRKVLKPIQLTDPGKIKRIRGMAYSVRVSPQMANRIVDSARSILNKFIPDIYIYTDHMKGVNSGKSPGFGLSLVAETTSGTFLSAELASNPQGQGAAVLPEDLGRNCARLLLEEIYRGGCVDSTNQSLALLLMTLGQQDVSKVLLGPLSPYTIEFLRHLKSFFQIMFKIETKPCGEELKGGDKVLMTCVGIGFSNLSKTLK [RCL1] | 0.888 | 52.4 °C | -1.92 | 52.3 °C
10 | MAVAIAAARVWRLNRGLSQAALLLLRQPGARGLARSHPPRQQQQFSSLDDKPQFPGASAEFIDKLEFIQPNVISGIPIYRVMDRQGQIINPSEDPHLPKEKVLKLYKSMTLLNTMDRILYESQRQGRISFYMTNYGEEGTHVGSAAALDNTDLVFGQYREAGVLMYRDYPLELFMAQCYGNISDLGKGRQMPVHYGCKERHFVTISSPLATQIPQAVGAAYAAKRANANRVVICYFGEGAASEGDAHAGFNFAATLECPIIFFCRNNGYAISTPTSEQYRGDGIAARGPGYGIMSIRVDGNDVFAVYNATKEARRRAVAENQPFLIEAMTYRIGHHSTSDDSSAYRSVDEVNYWDKQDHPISRLRHYLLSQGWWDEEQEKAWRKQSRRKVMEAFEQAERKPKPNPNLLFSDVYQEMPAQLRKQQESLARHLQTYGEHYPLDHFDK [BCKDHA] | -0.0598 | 52.2 °C | 0.0962 | 52.2 °C
11 | MDDKAFTKELDQWVEQLNECKQLNENQVRTLCEKAKEILTKESNVQEVRCPVTVCGDVHGQFHDLMELFRIGGKSPDTNYLFMGDYVDRGYYSVETVTLLVALKVRYPERITILRGNHESRQITQVYGFYDECLRKYGNANVWKYFTDLFDYLPLTALVDGQIFCLHGGLSPSIDTLDHIRALDRLQEVPHEGPMCDLLWSDPDDRGGWGISPRGAGYTFGQDISETFNHANGLTLVSRAHQLVMEGYNWCHDRNVVTIFSAPNYCYRCGNQAAIMELDDTLKYSFLQFDPAPRRGEPHVTRRTPDYFL [PPP2CB] | -0.00731 | 45.7 °C | 0.0545 | 54.8 °C
12 | MDEERALYIVRAGEAGAIERVLRDYSDKHRATFKFESTDEDKRKKLCEGIFKVLIKDIPTTCQVSCLEVLRILSRDKKVLVPVTTKENMQILLRLAKLNELDDSLEKVSEFPVIVESLKCLCNIVFNSQMAQQLSLELNLAAKLCNLLRKCKDRKFINDIKCFDLRLLFLLSLLHTDIRSQLRYELQGLPLLTQILESAFSIKWTDEYESAIDHNGPPLSPQETDCAIEALKALFNVTVDSWKVHKESDSHQFRVMAAVLRHCLLIVGPTEDKTEELHSNAVNLLSNVPVSCLDVLICPLTHEETAQEATTLDELPSNKTAEKETVLKNNTMVYNGMNMEAIHVLLNFMEKRIDKGSSYREGLTPVLSLLTECSRAHRNIRKFLKDQVLPPLRDVTNRPEVGSTVRNKLVRLMTHVDLGVKQIAAEFLFVLCKERVDSLLKYTGYGNAAGLLAARGLLAGGRGDNWYSEDEDTDTEEYKNAKPKEELLKPMGLKPDGTITPLEEALNQYSVIEETSSDTD [RIC8B] | -0.194 | 49.4 °C | -0.00976 | 49.8 °C
13 | MDNRFATAFVIACVLSLISTIYMAASIGTDFWYEYRSPVQENSSDLNKSIWDEFISDEADEKTYNDALFRYNGTVGLWRRCITIPKNMHWYSPPERTESFDVVTKCVSFTLTEQFMEKFVDPGNHNSGIDLLRTYLWRCQFLLPFVSLGLMCFGALIGLCACICRSLYPTIATGILHLLAGLCTLGSVSCYVAGIELLHQKLELPDNVSGEFGWSFCLACVSAPLQFMASALFIWAAHTNRKEYTLMKAYRVA [CLDND1] | 0.186 |  | -0.395 | 58.6 °C
14 | MDPLFQQTHKQVHEIQSCMGRLETADKQSVHIVENEIQASIDQIFSRLERLEILSSKEPPNKRQNARLRVDQLKYDVQHLQTALRNFQHRRHAREQQERQREELLSRTFTTNDSDTTIPMDESLQFNSSLQKVHNGMDDLILDGHNILDGLRTQRLTLKGTQKKILDIANMLGLSNTVMRLIEKRAFQDKYFMIGGMLLTCVVMFLVVQYLT [GOSR2] | 0.0667 | 51.8 °C | 0.00468 | 51.4 °C
15 | MDTAEDPAWLQLLQKDSSPPGPRPTAFFCPQDGSLGAGSSAMRDYCPSQQKASPAPPRHTPDQSPGMESRHRSPSGAGEGASCSDGPRGSLACPSPTCFSPQESPSKETLEAHGASISGTPEATTSGKPEPVSSVKTEPKSSDDRNPMFLEKMDFKSSKQADSTSIGKEDPGSSRKADPMFTGKAEPEILGKGDPVAPGRMDPMTVRKEDLGSLGKVDPLCSSKTYTVSPRKEDPGSLRKVDPVSSDKVDPVFPRKEEPRYSGKEHPVSSEKVAPTSAEKVDLVLSGKRDPGPSGKADPMPLESMDSASTGKTEPGLLGKLIPGSSGKNGPVSSGTGAPGSLGRLDPTCLGMADPASVGNVETVPATKEDSRFLGKMDPASSGEGRPVSGHTDTTASAKTDLTSLKNVDPMSSGKVDPVSLGKMDPMCSGKPELLSPGQAERVSVGKAGTVSPGKEDPVSSRREDPISAGSRKTSSEKVNPESSGKTNPVSSGPGDPRSLGTAGPPSAVKAEPATGGKGDPLSSEKAGLVASGKAAPTASGKAEPLAVGKEDPVSKGKADAGPSGQGDSVSIGKVVSTPGKTVPVPSGKVDPVSLGKAEAIPEGKVGSLPLEKGSPVTTTKADPRASGKAQPQSGGKAETKLPGQEGAAAPGEAGAVCLKKETPQASEKVDPGSCRKAEPLASGKGEPVSLGKADSAPSRKTESPSLGKVVPLSLEKTKPSSSSRQLDRKALGSARSPEGARGSEGRVEPKAEPVSSTEASSLGQKDLEAAGAERSPCPEAAAPPPGPRTRDNFTKAPSWEASAPPPPREDAGTQAGAQACVSVAVSPMSPQDGAGGSAFSFQAAPRAPSPPSRRDAGLQVSLGAAETRSVATGPMTPQAAAPPAFPEVRVRPGSALAAAVAPPEPAEPVRDVSWDEKGMTWEVYGAAMEVEVLGMAIQKHLERQIEEHGRQGAPAPPPAARAGPGRSGSVRTAPPDGAAKRPPGLFRALLQSVRRPRCCSRAGPTAE [GPRIN1] | -0.114 | 54.4 °C | 0.2 | 53.5 °C
